Experimental data reported in US20210348149A1 (Alexion, published 2021).

Biological target: T1, r-Antidote (two-chain polypeptide, SEQ ID NO: 3); processed product of the precursor SEQ ID NO: 2 after … (human, UniProt P00742 80-179); P00742 235-488, in certain production batches: glycosylation at Thr249; in certain production batches: glycosylation at Ser56, Ser72, Ser76 and Thr82; (3R)-3-hydroxyAsp at Asp29)
T1 construct: Light and heavy chain are joined by a disulfide bond, Cys98 of the light chain to Cys108 of the heavy chain; also called fXa antidote; fXa derivative
T1 sequence (P00742 other isoform, or with tags, fused parts or gaps limits assumed, chain 1 of 2): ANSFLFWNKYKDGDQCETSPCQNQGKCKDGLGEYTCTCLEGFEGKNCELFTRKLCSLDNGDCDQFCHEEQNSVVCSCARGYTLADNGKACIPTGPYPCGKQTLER
T1 sequence (P00742 235-488 S419A limits assumed, chain 2 of 2): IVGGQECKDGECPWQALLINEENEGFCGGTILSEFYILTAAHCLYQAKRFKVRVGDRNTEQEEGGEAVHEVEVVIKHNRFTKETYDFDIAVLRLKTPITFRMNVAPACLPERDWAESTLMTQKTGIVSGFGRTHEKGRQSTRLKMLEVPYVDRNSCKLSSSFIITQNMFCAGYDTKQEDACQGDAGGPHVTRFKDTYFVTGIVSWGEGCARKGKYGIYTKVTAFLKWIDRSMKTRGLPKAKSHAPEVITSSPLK
Experiment: affinity chromatography with immobilised STI ligand (Example 2)
Procedure: An affinity chromatograph was developed for high-volume extraction of the antidote. The affinity ligand included Kunitz trypsin inhibitor (21 kDa; pI=4.5) extracted from whole soybean or flour. The soybean trypsin inhibitor (STI) forms 1:1 complex with the antidote. A non-competitive inhibitor elution condition was identified for scalability and compatibility, which included 25 mM Na-acetate, 1M Arginine, at pH 5.2.
Affinity column chromatography was performed using Capto STI resin at ambient temperature. During the load phase, the product bound to the resin while contaminants flew through. The product was recovered by disrupting protein interactions with a high concentration of arginine in the elution buffer. Prior to use, the column was rinsed with water for injection (WFI), cleaned with 100 mM Phosphoric Acid pH 3.0, and rinsed with WFI. The column was initially pre-equilibrated with pre-equilibration buffer (20 mM Tris-HCl, pH 7.4), then equilibrated with equilibration buffer (20 mM Tris-HCl, 200 mM NaCl, pH 7.4), and once the pH and conductivity of the column were within specification, it was loaded with Triton-X 100 treated clarified harvest (HCCF). Each cycle of HCCF material was transferred from its viral inactivation hold tank directly to the column.

- binding result: binds
B1: soybean trypsin inhibitor (STI), Kunitz trypsin inhibitor (21 kDa; pI=4.5) extracted from whole soybean or flour (other, soybean (Glycine max), UniProt P01070 25-205, looked up)
chain: DFVLDNEGNPLENGGTYYILSDITAFGGIRAAPTGNERCPLTVVQSRNELDKGIGTIISSPYRIRFIAEGHPLSLKFDSFAVIMLCVGIPTEWSVVEDLPEGPAVKIGENKDAMDGWFRLERVSDDEFNNYKLVFCPQQAEDDKCGDIGISIDHDDGTRRLVVSKNKPLVVQFQKLDKESL
notes: also called STI ligand
